Laboratory results: the supplement of paper PMC9170038

Tested on: MS2 coat protein
Assay: apparent KD of MS2 coat protein; designed switch direction (-1 OFF switch, 1 ON switch): -1; higher = weaker reporter binding
Method in brief: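 The apparent KD reported per design is the median over clusters of curve fits to normalised cluster fluorescence. The RNA switches were transcribed on Illumina chips by stalled E. coli RNA polymerase. SNAP-549-labelled MS2 coat protein was titrated from 0.7 or 1.5 nM, doubling up to 3 µM, in Tris-HCl pH 7.5 buffer containing KCl, MgCl2, BSA, DTT, tRNA and Tween-20, with no input, 200 uM small-molecule ligand, or an oligonucleotide input.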

[1] = Eterna round: R95, input ligand: microRNA oligo, concentration not stated
[2] = input ligand: microRNA oligo, concentration not stated
[3] = Eterna round: R95, input ligand: FMN 200 uM
[4] = Eterna round: R95, input ligand: none

Sequence: CUUUCGUGAGGAUAUCAGUAGUAAAAUAAUAAAAUUACUACUGAGAAGGCACAUGAGGAUCACCCAUGUUCCUC [salish99_ex3_r3_099] (puzzle: Exclusion 4)
- apparent KD of MS2 coat protein [1]: 0.0249 µM

Sequence: CUUUUGUGAGGAUAUCAGGUGUGCUAGCGUACUGGUACAUCUGAGAAGGCACAUGAGGAUCACCCAUGUUUCUA [Mat - Exclusion 4 - Mod of JL - D38] (puzzle: Exclusion 4)
- apparent KD of MS2 coat protein [1]: 0.064 µM

Sequence: CUUUUGUGAGGAUAUCAGUAGUAAAAAAAUAAAUUUACUACUGAGAAGGCACAUGAGGAUCACCCAUGUUCCUC [salish99_ex4_r3_025] (puzzle: Exclusion 4)
- apparent KD of MS2 coat protein [1]: 0.0429 µM

Sequence: CUUUUGUGAGGAUAUCAGUAGUAAAAUAAUAAUAUUACUACUGAGAAGGCACAUGAGGAUCACCCAUGUUCCUC [Fiskers Ex 4 Super stable 44 mod 1] (puzzle: Exclusion 4)
- apparent KD of MS2 coat protein [1]: 0.039 µM

Sequence: CUUUUGUGAGGAUAUCAGUAGUAAAUAAAUUAAAUUACUACUGAGAAGGCACAUGAGGAUCACCCAUGUUCCUC [salish99_ex3_r3_081] (puzzle: Exclusion 4)
- apparent KD of MS2 coat protein [1]: 0.0393 µM

Sequence: CUUUUGUGAGGAUAUCAGUAGUAAAUAUAUAAAAUUACUACUGAGAAGGCACAUGAGGAUCACCCAUGUUCCUC [salish99_ex3_r3_079] (puzzle: Exclusion 4)
- apparent KD of MS2 coat protein [1]: 0.0388 µM

Sequence: CUUUUGUGAGGAUAUCAGUAGUAAUAAAAUAAAAUUACUACUGAGAAGGCACAUGAGGAUCACCCAUGUUCCUC [salish99_ex4_r3_018] (puzzle: Exclusion 4)
- apparent KD of MS2 coat protein [1]: 0.0376 µM

Sequence: CUUUUGUGAGGAUAUCAGUAGUAAUACAAUAGUAUUACUACUGAGAAGGCACAUGAGGAUCACCCAUGUUCCUC [Ex4 344 Omei mod 0] (puzzle: Exclusion 4)
- apparent KD of MS2 coat protein [1]: 0.0405 µM

Sequence: CUUUUGUGAGGAUAUCAGUGGUAAUACAAUAGUAUUACUACUGAGAAGGCACAUGAGGAUCACCCAUGUUCCUC [Ex4 344 Omei mod 11] (puzzle: Exclusion 4)
- apparent KD of MS2 coat protein [1]: 0.0431 µM

Sequence: CUUUUGUGAGGAUAUUAGUAGUAUAUAAUUGGUGAUAUUGCUGAGAAGGCACAUGAGGAUCACCCAUGUACAAC [JR_Ex4_Sub034] (Eterna round: R97, puzzle: Exclusion 4)
- apparent KD of MS2 coat protein (input ligand: FMN 200 uM): 0.369 µM
- apparent KD of MS2 coat protein (input ligand: none): 0.441 µM

Sequence: CUUUUGUGAGGAUAUUAGUAGUUAAUAAAUAAAAUUACUACUGAGAAGGCACAUGAGGAUCACCCAUGUUCCUC [salish99_ex4_r3_051] (puzzle: Exclusion 4)
- apparent KD of MS2 coat protein [1]: 0.0328 µM

Sequence: CUUUUGUGAGGAUAUUGGUAGUAAAUAAAUAAAAUUACUACUGAGAAGGCACAUGAGGAUCACCCAUGUUCCUC [salish99_ex4_r3_070] (puzzle: Exclusion 4)
- apparent KD of MS2 coat protein [1]: 0.0307 µM

Sequence: GAAAACGAUGAGGAUAUAUGAUAUCAAAGCAUCAUAGAAGGCAUCACAUGAGGAUCACCCAUGUGAUCUUCUUG [Mat - Exclusion 6 - JL Mod - D31] (Eterna round: R97, puzzle: Exclusion 6)
- apparent KD of MS2 coat protein (input ligand: FMN 200 uM): 0.164 µM
- apparent KD of MS2 coat protein (input ligand: none): 0.0266 µM

Sequence: GAAAACGCAGAGGAUAUUUCAGAUCAAAGCUGCAAAGAAGGCUGCACAUGAGGAUCACCCAUGUGGUCUUAAAA [Mod of Quesina 2 - Jieux - Exclusion 6] (Eterna round: R97, puzzle: Exclusion 6)
- apparent KD of MS2 coat protein (input ligand: FMN 200 uM): 0.337 µM
- apparent KD of MS2 coat protein (input ligand: none): 0.0238 µM

Sequence: GAAAAGAAGCUAGGAUAUGCAUGACGGAUACCCGUGAGCACGUAGCAGACAUGAGGAUCACCCAUGUAGAAGGAGCGAAGAAAU [Veteriat] (Eterna round: R96, puzzle: Exclusion NG 2)
- apparent KD of MS2 coat protein (input ligand: FMN 200 uM): 0.251 µM
- apparent KD of MS2 coat protein [2]: 0.0436 µM
- apparent KD of MS2 coat protein (input ligand: none): 0.0528 µM

Sequence: GAAAAGCUAGGAUAUACAUGAGGAUCACCCAUGUAAGGUCGCUUCUUAUAUAGGGCAUGUAGAAGGAGCAAAGA [Eneriner] (puzzle: Exclusion 3)
- apparent KD of MS2 coat protein [3]: 0.0706 µM
- apparent KD of MS2 coat protein [1]: 0.0359 µM
- apparent KD of MS2 coat protein [4]: 0.0321 µM

Sequence: GAAAAGGGAGGAUAUACAAGAAGAAAAGAAAAGAAAAGAAAACAUGAGGAUCACCCAUGUAGAAGGCCCAAAAG [Default title] (puzzle: Exclusion 2)
- apparent KD of MS2 coat protein [3]: 0.0226 µM
- apparent KD of MS2 coat protein [1]: 0.0187 µM
- apparent KD of MS2 coat protein [4]: 0.0238 µM

Sequence: GAAAAGGUAGGAUAUACAAAAAAAAAGGGUAGAAAAAAAACACAUGAGGAUCACCCAUGUAGAAGGACCAAAAG [salish99_ex2_r3_057] (puzzle: Exclusion 2)
- apparent KD of MS2 coat protein [3]: 0.0837 µM
- apparent KD of MS2 coat protein [1]: 0.037 µM
- apparent KD of MS2 coat protein [4]: 0.0259 µM

Sequence: GAAAAGGUAGGAUAUACGAAAAAAAAGGGUAGAAAAAAAACACAUGAGGAUCACCCAUGUAGAAGGACCAUAAG [salish99_ex2_r3_091] (puzzle: Exclusion 2)
- apparent KD of MS2 coat protein [3]: 0.0633 µM
- apparent KD of MS2 coat protein [1]: 0.0299 µM
- apparent KD of MS2 coat protein [4]: 0.0292 µM

Sequence: GAAAAGGUAGGAUAUACGAAAAAAAAGGGUAGAAAAAAAACACAUGAGGAUCACCCAUGUAGAAGGACCUAAAG [salish99_ex2_r3_090] (puzzle: Exclusion 2)
- apparent KD of MS2 coat protein [3]: 0.0561 µM
- apparent KD of MS2 coat protein [1]: 0.0257 µM
- apparent KD of MS2 coat protein [4]: 0.0246 µM

Sequence: GAAAAGGUAGGAUAUACGAAAAAAAAGGGUAGAAAAAAAUCACAUGAGGAUCACCCAUGUAGAAGGACCAAAAG [salish99_ex2_r3_072] (puzzle: Exclusion 2)
- apparent KD of MS2 coat protein [3]: 0.0623 µM
- apparent KD of MS2 coat protein [1]: 0.025 µM
- apparent KD of MS2 coat protein [4]: 0.0283 µM

Sequence: GAAAAGGUAGGAUAUACGAAAAAAAAGGGUUGAAAAAAAACACAUGAGGAUCACCCAUGUAGAAGGACCAAAAG [salish99_ex2_r3_080] (puzzle: Exclusion 2)
- apparent KD of MS2 coat protein [3]: 0.14 µM
- apparent KD of MS2 coat protein [1]: 0.0197 µM
- apparent KD of MS2 coat protein [4]: 0.026 µM

Sequence: GAAAAGGUAGGAUAUACGAAAAGAAAGGGUAGAAAGAAAACACAUGAGGAUCACCCAUGUAGAAGGACCAAAAG [salish99_ex2_r3_095] (puzzle: Exclusion 2)
- apparent KD of MS2 coat protein [3]: 0.0373 µM
- apparent KD of MS2 coat protein [1]: 0.0146 µM
- apparent KD of MS2 coat protein [4]: 0.0268 µM

Sequence: GAAAAGUGAGGAUAUGCUCGAUCCUGGCACCAAGUGAAGUCACUUGAGGAUCACCCAAGUAGAAGGCACAUAAA [Tiederes] (Eterna round: R97, puzzle: Exclusion 2)
- apparent KD of MS2 coat protein (input ligand: FMN 200 uM): 0.206 µM
- apparent KD of MS2 coat protein (input ligand: none): 0.0553 µM

Sequence: GAAAAUGUGGAGGAUAUCGACUUCGAAAGAAGUCGAGAAGGCCACACAUGAGGAUCACCCAUGUGUUGCUUAUA [Omei Ex6 H7] (Eterna round: R97, puzzle: Exclusion 6)
- apparent KD of MS2 coat protein (input ligand: FMN 200 uM): 0.0207 µM
- apparent KD of MS2 coat protein (input ligand: none): 0.016 µM

Sequence: GAAAAUUGGGCAGGAUAUCUAAUGAAAGAAACCGGAGAAGGGCCGGUGGCAAUUGCAGACAUGAGGAUCACCCAUGUAGUUGCA [Eternabot solution 42] (Eterna round: R96, puzzle: Exclusion NG 1)
- apparent KD of MS2 coat protein (input ligand: FMN 200 uM): 0.0135 µM
- apparent KD of MS2 coat protein [2]: 0.0152 µM
- apparent KD of MS2 coat protein (input ligand: none): 0.0149 µM

Sequence: GAAAGGUGAGGAUAUACACUGCGGUGUAGUCCUCAUAAAAGACAUGAGGAUCACCCAUGUAGAAGGCACAUAAA [Rirereis] (puzzle: Exclusion 2)
- apparent KD of MS2 coat protein [3]: 0.096 µM
- apparent KD of MS2 coat protein [1]: 0.0328 µM
- apparent KD of MS2 coat protein [4]: 0.0275 µM

Sequence: GAACUGAGGCUUUGCUUUAGUCGUACAUGAGGAUCACCCAUGUAGGAUAUGGUAGGCUUUGCUUACCAGAAGGACAGAGUGAUC [JL EXNG3 1.21] (Eterna round: R96, puzzle: Exclusion NG 3)
- apparent KD of MS2 coat protein (input ligand: FMN 200 uM): 0.0529 µM
- apparent KD of MS2 coat protein [2]: 0.192 µM
- apparent KD of MS2 coat protein (input ligand: none): 0.195 µM
